Ends that are not written are not given here. Peptide text beside a SMILES is read from it. * marks the point of attachment. FITC = O=C1OC2(c3ccc(O)cc3Oc3cc(O)ccc32)c2ccc(NC(=S)*)cc21
Legend:
[1] = test system: CCK1R; assay: Affinity of amidated gastrins for CCK1R; format: binding
[2] = test system: colon cancer xenograft; assay: Homing of FITC-PG26 to Anx A2 over-expressing tumors growing as xenografts in nude mice; format: in vivo
Procedure: FIGS. 8A-E depict 10-100 μg of FITC-PG-26 peptide was dissolved in 100 μl of saline was used to detect the tumor in nude mice. The images were captured in live mice after 1-60 minutes, with injection on the tumor site (FIG. 8A) or through tail vein (FIGS. 8B-D). In FIG. 8B, the localization of tumor cells are marked with arrows detected after 5 minutes post tail vein injection.
For data presented in FIGS. 2-4, 5A-5B and 6A-6E, the full length 80 amino acid rhPG was used (SEQ ID NO: 2), which was visualized by staining with fluorescently labeled primary or secondary antibodies. […] Strong peri-nuclear co-localization of FITC-PG26 with Anx A2 was measured within 15 min of labeling in a chase experiment (FIG. 7). […]
The 26 amino acid PG peptide (PG26), labeled with FITC at the N-terminal end, specifically homed to the site of a colon cancer xenograft, growing either under the skin or growing as a metastatic lesion in the liver. […] Even small tumor lesions were detected with FITC-PG26 after […] of tail vein injection (FIG. 8B). FITC-control peptide was not detected after 30 min of injecting into the tail vein (FIG. 8E), confirming the specificity of FITC-PG26 peptide for homing to tumors in situ.

[3] = Biological activity of PG26
From the text: For data presented in FIGS. 2-4, 5A-5B and 6A-6E, the full length 80 amino acid rhPG was used (SEQ ID NO: 2), which was visualized by staining with fluorescently labeled primary or secondary antibodies. However, in order to examine the feasibility of using PG peptides for diagnostic and treatment purposes, synthesized FITC labeled PG fragments (PG26, SEQ ID NO 1: […]) conjugated with either radio- or fluorescently labeled imaging reagents (for diagnostic purposes), or with cytotoxic payloads (for therapeutic purposes) was studied. […] Endocytotic internalization of FITC-PG26 in PG responsive immortalized kidney embryonic cell line, HEK-293, was examined. Strong peri-nuclear co-localization of FITC-PG26 with Anx A2 was measured within 15 min of labeling in a chase experiment (FIG. 7). […] The homing potential of FITC-PG26 to Anx A2 over-expressing tumors, growing as xenografts in nude mice, was confirmed, as shown in FIGS. 8A-8E.

[4] = molecular target: T1, Anx A2 (Rattus norvegicus, UniProt Q07936); details: Anx A2 prepared from cancer cells/tumor membranes; cited from earlier work
T1 construct: the 36 kDa Anx A2 protein, prepared from cancer cells/tumor membranes; endogenous in cells

[5] = molecular target: Anx A2 (Homo sapiens, UniProt P07355); assay: In vitro binding assay and co-IP of rhPG and ANX-II; details: in vitro binding assay, FIG. 3
From the text: Lane 1 is rhPG; lane 2 is ANX-II; lanes 3 and 4 are rhPG and ANX-II; lane 3 is IP with anti-PG (aPG); lane 4 is IP with anti-ANX-II (aANX-II). All the samples were processed for WB with both aPG and ANX-II.
(§1) Adenoma and adenocarcinomas tissue sections (from ovarian and colorectal cancers of patients) were positive for Anx A2 expression, while normal tissues were negative (FIGS. 4, 5A-5B). Immortalized intestinal epithelial cell line (IEC-18) are used, which responds to the growth and anti-apoptotic effects of PG peptides (9), for further investigating the biology of interaction of PG with Anx A2. Intra-cellular translocation of labeled PG was examined in IEC-18 cells. […] Using fluoroscense assisted sorting with labeled anti-Anx A2-Abs, presence of extracellular Anx A2 was confirmed on IEC-18 cells (FIG. 6B).

[6] = test system: immortalized cells (IEC, HEK-293) and cancer cell lines (from ovaries/colons); assay: Co-localization of PG with Anx A2 in PG-responsive cells; format: cell-based; details: cells responsive to growth effects of PG peptides
From the text: as §1

[7] = test system: IEC-18 cells; assay: Intra-cellular translocation of PG in IEC-18 cells (confocal microscopy, pull down/WB, Anx A2 siRNA); format: cell-based
Procedure: FIGS. 6A-6E depict the binding of PG with ANXII. FIG. 6A depicts immuno-colocalization of ANXII/PG in IEC cells, incubated with PG. E. IEC-18 cells were seeded, on sterile glass cover slips. Following overnight culture cells were incubated with PG (1 nM) from 0-15 min, and washed 3× with chilled PBS. Cells were fixed in acetone:methanol for 20 min at −20° C., and incubated with anti-PG or anti-ANXII-Abs, followed by fluorescence labeling with second Abs. Images were captured by confocal microscopy at 60×. Insets represent computer assisted enlarged images. Arrows depict co-localization on membranes. […] Cells in culture were detached with liberase to make single cell suspensions and incubated with either non-immune IgG or anti-ANXII-Ab for 2 hours at room temperature, washed with chilled PBS followed by incubation with FITC-second-Ab for 1 hours at room temperature. FIG. 6C depicts IEC-18 cells in culture treated with PG for 0-15 min except for Lamp1 (treated for 0-30 min) at 37° C. and washed with chilled PBS 3×. Cells were processed for pull down with anti-PG-Ab and processed for WB analysis for either EEA1/ANXII/PG/Lamp1. […] The inset portion of the co-localization staining is also shown.
as §1
Since Anx A2 lacks transmembrane domains, mechanisms mediating translocation of Anx A2/PG from outer cell membranes towards intracellular compartments remains unknown. Anx A2 also binds transmembrane proteins such as CD44, which are over-expressed in cancer cells. Thus the tumor specific expression of CD44-like transmembrane proteins offers an additional level of cancer-specific regulation, allowing intra-cellular translocation of PG-Anx A2 only in tumor cells. […] Co-localization of PG/Anx A2 with the early endosomal marker (EEA1) was examined. Cellular lysates from IEC-18 cells, treated with PG for 0, 5 and 15 min, were pulled down with anti-PG Abs and processed for WB analysis for EEA1, Lamp1 (lysomal marker), Anx A2 and PG (FIG. 6C). Possible in situ co-localization of EEA1 with PG was also examined after 15 min of PG stimulation by confocal microscopy (FIG. 6D). […]

T1 sequence (Q07936 whole entry): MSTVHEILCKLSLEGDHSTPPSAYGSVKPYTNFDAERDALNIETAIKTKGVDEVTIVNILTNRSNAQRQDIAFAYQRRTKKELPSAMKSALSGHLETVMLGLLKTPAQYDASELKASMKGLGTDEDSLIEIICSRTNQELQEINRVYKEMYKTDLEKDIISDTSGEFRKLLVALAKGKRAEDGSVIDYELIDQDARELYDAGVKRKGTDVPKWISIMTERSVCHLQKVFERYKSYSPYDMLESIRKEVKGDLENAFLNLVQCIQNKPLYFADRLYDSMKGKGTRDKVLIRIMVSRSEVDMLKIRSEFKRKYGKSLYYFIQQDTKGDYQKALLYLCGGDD
Sequence of Anx A2 (Homo sapiens, UniProt P07355) (P07355 whole entry, species assumed): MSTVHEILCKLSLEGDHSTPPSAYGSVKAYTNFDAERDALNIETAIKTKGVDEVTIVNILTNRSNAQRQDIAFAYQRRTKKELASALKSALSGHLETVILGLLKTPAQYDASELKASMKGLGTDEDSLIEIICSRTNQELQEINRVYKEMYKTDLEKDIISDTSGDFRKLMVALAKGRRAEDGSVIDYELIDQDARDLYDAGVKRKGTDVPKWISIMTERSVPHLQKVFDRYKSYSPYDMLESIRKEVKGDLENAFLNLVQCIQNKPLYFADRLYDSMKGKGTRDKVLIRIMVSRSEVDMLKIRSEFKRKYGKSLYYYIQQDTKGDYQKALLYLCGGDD

In the case of G17: amidated gastrin, the “affinity for CCK1R” value [1] is reported as “much higher affinity”.

With `CSCC[C@H](NC(=O)[C@H](Cc1c[nH]c2ccccc12)NC(=O)CNC(=O)[C@H](Cc1ccc(O)cc1)NC(=O)[C@H](C)NC(=O)[C@H](CCC(=O)O)NC(=O)[C@H](CCC(=O)O)NC(=O)[C@H](CCC(=O)O)NC(=O)[C@H](CCC(=O)O)NC(=O)[C@H](CCC(=O)O)NC(=O)[C@H](CC(C)C)NC(=O)[C@H](Cc1c[nH]c2ccccc12)NC(=O)[C@@H]1CCCN1C(=O)CNC(=O)[C@H](CCC(N)=O)NC(=S)Nc1ccc2c(c1)C(=O)OC21c2ccc(O)cc2Oc2cc(O)ccc21)C(=O)N[C@@H](CC(=O)O)C(=O)N[C@@H](Cc1ccccc1)C(=O)NCC(=O)N[C@@H](CCCNC(=N)N)C(=O)N[C@@H](CCCNC(=N)N)C(=O)N[C@@H](CO)C(=O)N[C@@H](C)C(=O)N[C@@H](CCC(=O)O)C(=O)N[C@@H](CC(=O)O)C(=O)N[C@@H](CCC(=O)O)C(=O)N[C@@H](CC(N)=O)C(=O)O` [FITC-PG26] ({FITC}-QGPWLEEEEEAYGWMDFGRRSAEDEN-OH; N-terminus and C-terminus assumed) the “retention in the tumor” value ([2]; i.v. injection through the tail vein, FIG. 8C) was ~60 min and the “retention of fluorescence in tumor” value ([2]; injected intra-tumorally, FIG. 8A) was > 20 min.

In the case of “G34: amidated gastrin (QLGPQGPPHLVADPSKKQGPWLEEEEEAYGWMDF-NH2; ends and bridges not checked; UniProt P01350 59-92, looked up)”, the “affinity for CCK1R” value [1] is reported as “much higher affinity”.

With “QGPWLEEEEEAYGWMDFGRRSAEDEN (homing progastrin peptide specifically binding annexin2) [PG26, 26 amino acid PG peptide fragment]” the biological activity [3] was “biologically active”.

For “CCK8: cholecystokinin CCK8 [reference compound]”, the “Relative binding affinity (RBA) for the 36 kDa Anx A2 protein, rank order” value (shortened to “Relative binding affinity (RBA)”) [4] is listed as “no affinity”.

B1: PG: full length 80 amino acid rhPG (SEQ ID NO: 2) (protein)
chain: SWKPRSQQPDAPLGTGANRDLELPWLEQQGPASHHRRQLGPQGPPHLVADPSKKQGPWLEEEEEAYGWMDFGRRSAEDEN
modifications: recombinant human progastrin
In the case of B1, the “binding of Anx A2 and rhPG” value [5] is listed as “Direct binding”, the “co-localization of PG with Anx A2” value [6] is listed as “strong co-localization” and the “Relative binding affinity (RBA)” value [4] is listed as “PG>G-Gly>G17”. For the same molecule, the PG binding/uptake ([7]; IEC18 cells treated with specific siRNA against Anx A2, FIG. 6E) was “completely negative”, the “localization of PG/Anx A2 after addition of PG” value ([7]; IEC-18 cells, FIG. 6A) was “initial co-localization of PG with Anx A2 on the cellular membranes, followed by rapid intracellular localization” and the “time to translocation of Anx A2 and PG into early endosomes” value ([7]; after PG stimulation, IEC-18 cells) was ≤ 5 min. The “increase in co-IP of Lamp1 with PG” value ([7]; later time points, FIG. 6C) was ~5 fold.

B2: G-Gly: glycine-extended gastrin, processing intermediate of progastrin (peptide)
peptide: SWKPRSQQPDAPLGTGANRDLELPWLEQQGPASHHRRQLGPQGPPHLVADPSKKQGPWLEEEEEAYGWMDFGRRSAEDEN
For B2, the “Relative binding affinity (RBA)” value [4] is listed as “PG>G-Gly>G17”.

Source: patent publication US20110085986A1, “Diagnosis and treatment of epithelial cancers using labeled/conjugated progastrin peptides” (priority 2009, published 2011)
